In patent publication US20050118674A1, “Engineering of Controlled Deamidation Rates in Peptides, Proteins, and Similar Structures” (priority 2003, published 2005):

Experiment: First-order nonenzymatic deamidation of pentapeptides in Tris buffer
Assay type: physicochemical
Settings: pH 7.4, 37.0° C., 0.15 M Tris HCl; Asn pentapeptides
Summary of the method: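 Pentapeptides containing Asn or Gln in varied flanking sequences incubated at 37° C., pH 7.4, 0.15 M Tris buffer; first-order deamidation rates measured. Some Asn values estimated from remaining data; many Gln values derived from surface fitting rather than measured.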

Substance | First-Order Deamidation Halftimes of GlyXxxAsnYyyGly [days]
GlyValAsnSerGly (GVNSG; printed: GlyValAsnSerGly) | 18.2
GlyValAsnThrGly (GVNTG; printed: GlyValAsnThrGly) | 49.9
GlyValAsnTrpGly (GVNWG; printed: GlyValAsnTrpGly) | 88.9
GlyValAsnTyrGly (GVNYG; printed: GlyValAsnTyrGly) | 79.2
GlyValAsnValGly (GVNVG; printed: GlyValAsnValGly) | 291

Same assay, conditions: pH 7.4, 37.0 ° C., 0.15 M Tris HCl; Gln pentapeptides; 52 values measured, rest derived from surface fitting

Substance | First-Order Deamidation Halftimes of GlyXxxGlnYyyGly [days]
GlyValGlnAlaGly (GVQAG; printed: GlyValGlnAlaGly) | 4500
GlyValGlnArgGly (GVQRG; printed: GlyValGlnArgGly) | 6100
GlyValGlnAspGly (GVQDG; printed: GlyValGlnAspGly) | 7000
GlyValGlnCysGly (GVQCG; printed: GlyValGlnCysGly) | 1300
GlyValGlnGluGly (GVQEG; printed: GlyValGlnGluGly) | 6500
GlyValGlnGlyGly (GVQGG; printed: GlyValGlnGlyGly) | 640
GlyValGlnHisGly (GVQHG; printed: GlyValGlnHisGly) | 5000
GlyValGlnIleGly (GVQIG; printed: GlyValGlnIleGly) | 5600
GlyValGlnLeuGly (GVQLG; printed: GlyValGlnLeuGly) | 5500
GlyValGlnLysGly (GVQKG; printed: GlyValGlnLysGly) | 5200
GlyValGlnMetGly (GVQMG; printed: GlyValGlnMetGly) | 4200
GlyValGlnPheGly (GVQFG; printed: GlyValGlnPheGly) | 7200
GlyValGlnProGly (GVQPG; printed: GlyValGlnProGly) | 8500
GlyValGlnSerGly (GVQSG; printed: GlyValGlnSerGly) | 4400
GlyValGlnThrGly (GVQTG; printed: GlyValGlnThrGly) | 4300
GlyValGlnTrpGly (GVQWG; printed: GlyValGlnTrpGly) | 12000
GlyValGlnTyrGly (GVQYG; printed: GlyValGlnTyrGly) | 9700
GlyValGlnValGly (GVQVG; printed: GlyValGlnValGly) | 5900
